The text below walks through data of patent US20250326842A1 (BEIGENE SWITZERLAND, published 2025).

For one assay, the target named is T1, hPVRIG-ECD-his (human, UniProt Q6DKI7 41-171).
T1 construct: Acrobiosystems PVG-H52H4; also called hPVRIG-His; human PVRIG-His; not shown: His tag
T1 sequence: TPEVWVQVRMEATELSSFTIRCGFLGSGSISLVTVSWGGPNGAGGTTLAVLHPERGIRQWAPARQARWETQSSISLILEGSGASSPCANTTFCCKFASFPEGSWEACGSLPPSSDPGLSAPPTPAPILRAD
In words: blocking ELISA: hPVRIG-His coated, antibody mixed with PVRL2-biotin at 1 ug/mL; % inhibition of PVRL2 binding [panel B]. (ELISA stands for enzyme-linked immunosorbent assay.)

In assay [1] the target is T2, human PVRIG expressed on cells (human, UniProt Q6DKI7 41-326).
T2 sequence: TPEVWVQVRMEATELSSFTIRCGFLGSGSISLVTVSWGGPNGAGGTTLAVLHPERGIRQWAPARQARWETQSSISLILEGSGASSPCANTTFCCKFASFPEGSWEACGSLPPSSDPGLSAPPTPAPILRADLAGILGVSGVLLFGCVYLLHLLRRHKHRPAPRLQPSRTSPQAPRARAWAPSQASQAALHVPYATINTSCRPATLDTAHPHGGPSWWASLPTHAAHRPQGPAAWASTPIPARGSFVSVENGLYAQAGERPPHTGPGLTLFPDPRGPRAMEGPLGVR
In words: cell-based or functional assay.

Assay [2] deals with T2, human PVRIG expressed on cells. In words: flow cytometry on HuPVRIG-overexpressed Jurkat cells. (In general: Flow cytometry measures light scatter and fluorescence of single cells or particles in a stream.)
For assay [3], the target named is T3, human PVRIG recombinant protein (human, UniProt Q6DKI7 41-171).
T3 construct: also called human PVRIG protein; recombinant human antigen PVRIG
T3 sequence: T1 sequence
In words: SPR, antibody captured via anti-human Fc, human PVRIG analyte. The text has this: For affinity determination, anti-PVRIG antibodies were captured by anti-human Fc antibodies, and used in the affinity assay based on surface plasmon resonance (SPR) technology.
(SPR reads the build-up and loss of mass on a sensor chip optically.)

Assay [4] deals with T3, human PVRIG recombinant protein. In words: competition ELISA, BGA384 against biotinylated human PVRL2 (Fc-Avi-tag) on coated human PVRIG.
For another assay, the target named is FcγRI (human, UniProt P12314 16-288, limits assumed). In words: Biacore, KD from kinetic constants (koff/kon). Here is the method:
K¹ (M) values were calculated from the ratio of the kinetic constants as KD=koff/kₒₙ. K2 (M) values were determined by the analyte concentration at which half of the ligands are occupied at equilibrium.

Assay [5] has as its target T4, Human Serum Albumin Protein His Tag (human, UniProt P02768 25-609).
T4 construct: also called negative control protein smear; not shown: His tag
In words: immunohistochemistry on protein smears, Biotin-BGA384. The text has this: Materials and Methods: A total of 35 tissue types, each in triplicate from 3 donors, were used for the evaluation. […] 0.5 and […] Biotin-Human IgG1-Kappa (IgG1 isotype control), and 0.01 mol/L phosphate-buffered saline (reagent control).

T4 sequence (P02768 25-609 limits assumed): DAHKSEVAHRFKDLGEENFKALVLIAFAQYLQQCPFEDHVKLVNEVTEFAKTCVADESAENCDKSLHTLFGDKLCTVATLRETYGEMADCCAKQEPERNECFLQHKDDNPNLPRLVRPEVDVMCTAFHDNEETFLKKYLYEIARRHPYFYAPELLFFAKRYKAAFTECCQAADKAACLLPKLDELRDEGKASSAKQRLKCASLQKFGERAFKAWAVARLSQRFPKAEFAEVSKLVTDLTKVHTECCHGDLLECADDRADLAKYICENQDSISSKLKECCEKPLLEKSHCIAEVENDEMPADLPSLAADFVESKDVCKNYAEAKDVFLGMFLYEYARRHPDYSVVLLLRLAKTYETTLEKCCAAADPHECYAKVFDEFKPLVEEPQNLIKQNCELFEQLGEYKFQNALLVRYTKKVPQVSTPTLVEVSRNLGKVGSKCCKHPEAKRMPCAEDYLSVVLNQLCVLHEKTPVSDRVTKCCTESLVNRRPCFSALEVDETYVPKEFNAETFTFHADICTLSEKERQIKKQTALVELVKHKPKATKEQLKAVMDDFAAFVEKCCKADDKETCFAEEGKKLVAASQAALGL
Sequence of FcγRI (P12314 16-288 limits assumed): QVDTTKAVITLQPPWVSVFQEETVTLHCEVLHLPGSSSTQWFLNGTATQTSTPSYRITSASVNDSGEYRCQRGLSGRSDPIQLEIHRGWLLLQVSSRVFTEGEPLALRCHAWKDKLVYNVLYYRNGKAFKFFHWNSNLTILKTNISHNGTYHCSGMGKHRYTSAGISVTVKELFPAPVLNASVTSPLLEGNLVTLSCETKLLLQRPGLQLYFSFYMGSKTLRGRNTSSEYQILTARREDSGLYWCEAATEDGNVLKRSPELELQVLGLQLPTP

B1: BGA384 (antibody, human IgG1, kappa)
heavy: not shown
light: QIVLTQSPATLSLSPGERATLSCSAGSSVNYMHWFQQKPGQAPRLLIYSTSNLASGVPARFSGSGSGTDYTLTISSLEPEDFAVYYCQQRSSLPFTFGQGTKLEIKRTVAAPSVFIFPPSDEQLKSGTASVVCLLNNFYPREAKVQWKVDNALQSGNSQESVTEQDSKDSTYSLSSTLTLSKADYEKHKVYACEVTHQGLSSPVTKSFNRGEC
notes: also called BGB-A538; BGA384 WT
One may read the EC50 as the concentration at which the effect is half-maximal. Broadly, the Kd is the concentration at which binding is half-saturated. One may read the koff as the first-order rate constant of dissociation. By kon is commonly meant the rate constant with which the complex forms. One may read the IC50 as the point on the concentration scale where inhibition reaches its midpoint. As for B1, the “IC50 (read off the curve)” value with hPVRIG-ECD-his is approximately 0.4 mg/L. In assay [1], the “EC50 of promoter-driven luminescence, JK-NFAT-HuPVRIG with A549/OS8-H cells” value is 0.0377 mg/L. In assay [2], this molecule yielded an EC50 of 0.0269 mg/L. In addition, in assay [3], the Kd stood at 0.258 nM, the koff was 0.000304 s⁻¹ and the kon worked out at 1.18e+06 M⁻¹ s⁻¹. In assay [4], the IC50 amounted to 0.383 mg/L. The Kd with FcγRI stood at 3.26 nM. In addition, the binding result in assay [5] is “no binding (tested: 0.5 and 1 µg/mL)”.
